Among the targets are HLA-B*51:01; HLA-B*54:01; HLA-B*35:01; HLA-B*07:02; HLA-B*53:01.
Assay in all cases: IEDB peptide-MHC binding, purified MHC/competitive/radioactivity; filed as Kd, often an IC50 or EC50 that approximates it; ≥ and ≤ were set here for values at or beyond the usual limits of such assays
The target of another experiment is HLA-A*68:01. As to conditions: source organism: Vaccinia virus WR.
A further experiment addresses HLA-A*11:01. As to conditions: source organism: Vaccinia virus WR.
The next experiment concerns the target HLA-A*33:01. The conditions noted are these: source organism: Vaccinia virus WR.
Another experiment has as its target HLA-A*02:01. The conditions noted are these: source organism: Vaccinia virus WR.
The target of the next experiment is HLA-A*02:02. The conditions noted are these: source organism: Vaccinia virus WR.
In a further experiment the target is HLA-A*02:03. As to conditions: source organism: Vaccinia virus WR.
Another experiment deals with HLA-A*02:06. As to conditions: source organism: Vaccinia virus WR.
The next experiment concerns the target HLA-A*31:01. The conditions noted are these: source organism: Vaccinia virus WR.
A further experiment addresses HLA-A*03:01. The conditions noted are these: source organism: Vaccinia virus WR.
In another experiment the target is HLA-A*68:02. The conditions noted are these: source organism: Vaccinia virus WR.
Where [1] appears, read: source organism: Vaccinia virus WR.
[2] abbreviates: source organism: SARS coronavirus Tor2.
The mark [3] stands for this setting: source organism: Mammarenavirus guanaritoense.

With IPYLRNYMVI, the Kd (usually the concentration at which binding is half-saturated) is not below 25 µM with HLA-B*51:01 (setting [1]); 829 nM in the experiment with HLA-B*54:01 (setting [1]); not below 43900 nM with HLA-B*35:01 (setting [1]); not below 21400 nM with HLA-A*68:01; 1020 nM with HLA-A*11:01; 323 nM with HLA-B*07:02 (setting [1]). In addition, the Kd was 15.5 µM with HLA-A*33:01; not below 69.4 µM in the experiment with HLA-A*02:01; not below 70 µM with HLA-A*02:02; not below 70.4 µM in the experiment with HLA-A*02:03; 895 nM in the experiment with HLA-B*53:01 (setting [1]); not below 69.8 µM with HLA-A*02:06. The Kd in the experiment with HLA-A*31:01 is not below 37000 nM; with HLA-A*03:01 it was 158 nM; with HLA-A*68:02 it was 15.5 µM.
On to IPKFKVTGSY, for which the Kd is not below 69.6 µM with HLA-B*51:01 (setting [1]); not below 58200 nM in the experiment with HLA-B*54:01 (setting [1]); 1230 nM with HLA-B*35:01 (setting [1]); 6600 nM in the experiment with HLA-B*07:02 (setting [1]); not below 69900 nM in the experiment with HLA-B*53:01 (setting [1]).
Turning to KPNTWCLRCL, the Kd is not below 69.6 µM in the experiment with HLA-B*51:01 (setting [2]); not below 31100 nM with HLA-B*54:01 (setting [2]); not below 69900 nM with HLA-B*35:01 (setting [2]); 339 nM in the experiment with HLA-B*07:02 (setting [2]); 2440 nM with HLA-B*53:01 (setting [2]).
For the sequence FPSTQRDYY, the Kd in the experiment with HLA-B*51:01 (setting [1]) is not below 77.5 µM; with HLA-B*54:01 (setting [1]), 3940 nM; with HLA-B*35:01 (setting [1]) it was 1.08 nM; in the experiment with HLA-B*07:02 (setting [1]), not below 77500 nM; in the experiment with HLA-B*53:01 (setting [1]), 1.15 nM.
With KQYIVATLMK, the Kd is not below 35 µM in the experiment with HLA-B*51:01 (setting [1]); 13700 nM with HLA-B*54:01 (setting [1]); 18700 nM in the experiment with HLA-B*35:01 (setting [1]); 1340 nM with HLA-A*68:01; 3.78 nM in the experiment with HLA-A*11:01; not below 69600 nM with HLA-B*07:02 (setting [1]). Also, the Kd with HLA-A*33:01 was 1.15 µM; in the experiment with HLA-A*02:01 it was 11.2 µM; with HLA-A*02:02, 10.6 µM; with HLA-A*02:03 it was 9.86 µM; in the experiment with HLA-B*53:01 (setting [1]), not below 69900 nM; in the experiment with HLA-A*02:06, 11.4 µM. For the same sequence, the Kd with HLA-A*31:01 is 8.24 nM; in the experiment with HLA-A*03:01 it was 5.6 nM; with HLA-A*68:02, not below 49 µM.
Take LPNTLVFQA: the Kd with HLA-B*51:01 (setting [3]) was 4.4 µM; in the experiment with HLA-B*54:01 (setting [3]), 8.14 nM; with HLA-B*35:01 (setting [3]) it was 82.8 nM; with HLA-B*07:02 (setting [3]), not below 38300 nM; with HLA-B*53:01 (setting [3]), 1020 nM.
With FPGLYGASI, the Kd in the experiment with HLA-B*51:01 (setting [1]) turned out to be 0.137 µM; with HLA-B*54:01 (setting [1]) it was 18.4 nM; in the experiment with HLA-B*35:01 (setting [1]) it was 506 nM; in the experiment with HLA-B*07:02 (setting [1]) it was 80.9 nM; with HLA-B*53:01 (setting [1]), 9.2 nM.
Regarding EPISILDRI, the Kd was 0.0373 µM with HLA-B*51:01 (setting [1]); 820 nM in the experiment with HLA-B*54:01 (setting [1]); 4810 nM with HLA-B*35:01 (setting [1]); not below 28800 nM with HLA-B*07:02 (setting [1]); 194 nM in the experiment with HLA-B*53:01 (setting [1]).
Regarding KPPISFPLCA, the Kd is 9.52 µM in the experiment with HLA-B*51:01 (setting [2]); 3870 nM in the experiment with HLA-B*54:01 (setting [2]); not below 42500 nM in the experiment with HLA-B*35:01 (setting [2]); 17200 nM with HLA-B*07:02 (setting [2]); not below 31500 nM with HLA-B*53:01 (setting [2]).
For the sequence YPTNDIPSLF, the equilibrium dissociation constant (Kd) was 4.27 µM with HLA-B*51:01 (setting [1]); 473 nM with HLA-B*54:01 (setting [1]); 8.63 nM with HLA-B*35:01 (setting [1]); 1970 nM with HLA-B*07:02 (setting [1]); 7.67 nM with HLA-B*53:01 (setting [1]).
As to APHGVVFLHV, the Kd was determined as 7.81 µM in the experiment with HLA-B*51:01 (setting [2]); 288 nM in the experiment with HLA-B*54:01 (setting [2]); 4360 nM in the experiment with HLA-B*35:01 (setting [2]); 254 nM in the experiment with HLA-B*07:02 (setting [2]); 749 nM in the experiment with HLA-B*53:01 (setting [2]).

Source of the values: the Immune Epitope Database (IEDB).
